“Also recorded” adds a separate entry of the source. Like-named read-outs stand apart in the source and are kept apart here.

Experimental findings from patent US9428564B2, “Muscle function enhancing peptide” (Universitatsklinikum Heidelberg, priority 2009, dated 2016) are described below.

Assay [1] deals with adult intact cardiomyocytes. In words: Calcium homeostasis in adult intact cardiomyocytes. It counts as cell-based.
For assay [2], the system named is permeabilized cardiomyocytes. Description: Ca2+-spark frequency in β-escin permeabilized cardiomyocytes. Type of assay: cell-based, rabbit. Here is the method: Adult ventricular rabbit cardiomyocytes were isolated from four different animals as previously described (Loughrey C. M. et al., 2004, J. Physiol. 556:919-934) and permeabilized using β-escin (0.1 mg/ml). The permeabilized cells were incubated for 1 minute with rhodamine-labeled human S100A1 protein (0.1 μM) or FITC-labeled S100A1 C-terminal 20-mer peptide (0.1 μM) fused to a hydrophilic linker (amino acids 75 to 94 of human S100A1 fused to D-K-D-D-P-P (SEQ ID NO: 354)). Cells were monitored using a Bio-Rad 2000 laser scanning confocal microscope (LSCM). A striated staining pattern can be observed that resembles the ryanodine staining pattern (FIG. 4).
Isolated cardiomyocytes were perfused with a mock intracellular solution and permeabilized using β-escin (0.1 mg/ml). Fluo-3 free acid (10 μM) present in the perfusing solution was excited at 488 nm (Kr-laser) and measured at >515 nm applying epifluorescence optics of an inverted microscope with a ×60-1.2 NA water-immersion objective lens. Fluorescence was acquired in line scan mode at 2 ms line^−1; pixel dimension was 0.3 μm (512 pixels scan^−1; zoom=1.4). The scanning laser line orientated parallel with the long axis and placed approximately equidistant between the outer edge of the cell and the nucleus/nuclei, to ensure the nuclear area was not included in the scan line. To enable this trace to be converted to free calcium concentration ([Ca^2+]) a series of calibration solutions were used at the end of each Ca^2+-spark measurement period incorporating 10 mM EGTA. In all experiments concerning Ca^2+-sparks, the [Ca^2+] in the test solution was 145-160 nM. Ca^2+-sparks recorded in Fluo-3-containing solutions were quantified using an automated detection and measurement algorithm. All Ca^2+-spark measurements were made within 7-8 min of cell permeabilization. This time was standardized to minimize loss of soluble proteins. S100A1 protein or S100A1-ct peptide was applied in mock solution using a gravity-fed perfusion system. […]

Assay [3] has as its system permeabilized EDL murine skeletal muscle fibers. Description: Isometric twitch force in permeabilized skeletal muscle fibers. It counts as cell-based, mouse. Here is the method: Muscle Fiber Preparation and Experimental Solutions. All of the animals were handled according to the guidelines of the animal care committee of the University of Heidelberg. Male BALB/c mice (3-6-months-old) were sacrificed by an overdose of carbon dioxide, and muscle fiber preparation was carried out as previously described (Fink R. H. and Stephenson D. G., 1987, Pflugers Arch. Eur. J. Physiol. 409:374-380; Makabe M. et al., 1996, Pflugers Arch. Eur. J. Physiol. 432: 717-726). Either EDL (M. ext. dig. longum) or Soleus was isolated, and a small fiber bundle containing two to four single fibers (between 80 and 150 μm in diameter and 3-4-mm-long) was dissected in paraffin oil. […] The free ion concentrations were calculated with the computer program REACT (version 2.0) from G. L. Smith (Glasgow, Scotland). […]
Muscle fibers were skinned for 5 min in skinning solution while the sarcomere length was adjusted to 2.6±0.1 μm using the diffraction pattern of a helium-neon laser. […] Maximum force was measured in the high activating solution at pCa 4.28 and 5 mM caffeine. […] Several control transients were recorded before the fiber was exposed to the S100A1 protein or the S100A1 peptide mixture (N/H/C) or the C-terminal 20-mer alone, and the experiment was repeated as outlined above. […] The correlation coefficients were calculated to determine the accuracy of the fit. […]

Another assay relates to skeletal muscle fibers. In words: Calcium homeostasis in intact skeletal muscle fibers. Type of assay: cell-based.

B1: S100A1 protein: native human S100A1 protein, 94 amino acids, SEQ ID NO: 1 (protein, listed as Homo sapiens)
chain: MGSELETAMETLINVFHAHSGKEGDKYKLSKKELKELLQTELSGFLDAQKDVDAVDKVMKELDENGDGEVDFQEYVVLVAALTVACNNFFWENS
Consider B1, for which the calcium homeostasis entry (in assay [1]; in the assay with skeletal muscle fibers) was “does not alter” in each case. The RyR2 activity result in assay [2] is on record as “decreases”. For the same molecule, the “diastolic calcium spark frequency” value in assay [2] is given as “decrease calcium spark frequency; also recorded: decreases”. Moreover, the isometric twitch force entry was “enhances; also recorded: equivalent biological potency to enhance isometric force” in assay [3] and “has a potency to enhance isometric twitch force” in assay [3] (listed as full-length S100A1 protein).
